Assay results reported in PMC4003280, “Structural basis for the Nanos-mediated recruitment of the CCR4–NOT complex and translational repression” (Genes & Development, 2014).

Legend:
MBP-CNOT1 SHD = target: T1, MBP-CNOT1 SHD (human, UniProt A5YKK6 1833-2361); experiment: pull-down; GST pull-down in vitro with recombinant proteins expressed in E. coli; GST-NIM as bait; details: both partners purified
T1 construct: also called isolated CNOT1 SHD; NOT1 superfamily homology domain; source: E. coli BL21 (DE3) Star, purified (amylose resin, HiTrapQ, Superdex 200); not shown: MBP, N-terminal, kept
T1 sequence (A5YKK6 1833-2361): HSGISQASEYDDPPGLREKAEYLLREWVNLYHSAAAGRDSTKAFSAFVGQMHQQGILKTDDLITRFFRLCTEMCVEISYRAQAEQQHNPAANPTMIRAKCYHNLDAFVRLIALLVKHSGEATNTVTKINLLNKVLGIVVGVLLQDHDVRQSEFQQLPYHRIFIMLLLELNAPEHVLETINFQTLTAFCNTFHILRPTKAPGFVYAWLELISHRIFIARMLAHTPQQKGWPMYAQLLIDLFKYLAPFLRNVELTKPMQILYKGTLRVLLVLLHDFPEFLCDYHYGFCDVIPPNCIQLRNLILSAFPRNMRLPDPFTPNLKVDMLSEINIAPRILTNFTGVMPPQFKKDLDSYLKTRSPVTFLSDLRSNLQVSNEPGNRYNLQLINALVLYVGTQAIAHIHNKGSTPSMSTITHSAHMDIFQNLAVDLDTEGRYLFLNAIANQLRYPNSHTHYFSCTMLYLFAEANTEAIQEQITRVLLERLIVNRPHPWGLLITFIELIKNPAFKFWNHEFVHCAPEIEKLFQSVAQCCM

[1] = target: T2, CNOT1 SHD (residues 1833–2361), MBP tag removed (human, UniProt A5YKK6 1833-2361); experiment: crystal structure; CNOT1 SHD with synthetic Nanos1 NIM peptide; vapor diffusion at 22°C, 0.7-0.8 M succinic acid pH 7.0; refined at 2.8 Å; details: both partners purified
T2 construct: source: E. coli BL21 (DE3) Star, purified (amylose resin, HiTrapQ, HRV3C digestion, size exclusion chromatography); not shown: MBP, N-terminal, cleaved
T2 sequence (A5YKK6 1833-2361): as above

| Binder | binding result (MBP-CNOT1 SHD) | binding result [1] |
| --- | --- | --- |
| FDLWTDYLGLAHLVRAL (domain or fragment, human, UniProt P60323 4-20, looked up, Nanos3, human, NIM, residues 4-20; also called conserved motif of Nanos3 fused to glutathione S-transferase; GST-tagged Nanos3 NIM; source: E. coli BL21 (DE3) Star, purified (described in the Supplemental Material)) [GST-Nanos3 NIM] | binds | – |
| FSSWNDYLGLATLITKA (peptide, UniProt Q8WY41 40-56, looked up, Nanos1, H. sapiens, NIM, residues 40–56; also called NIM peptide of Nanos1; Nanos1 peptide; source: synthetic peptide (EMC Microcollections)) [Nanos1 NIM peptide (residues 40–56)] | – | binds |
| FDMWKDYFNLSQVVWAL (domain or fragment, human, UniProt P60321 6-22, looked up, Nanos2, human, NIM, residues 6-22; also called conserved motif of Nanos2 fused to glutathione S-transferase; GST-tagged Nanos2 NIM; source: E. coli BL21 (DE3) Star, purified (described in the Supplemental Material)) [GST-Nanos2 NIM] | binds | – |
| FSSWNDYLGLATLITKA (domain or fragment, human, UniProt Q8WY41 40-56, looked up, Nanos1, human, NIM, residues 40-56; also called conserved motif of Nanos1 fused to glutathione S-transferase; GST-tagged Nanos1 NIM; source: E. coli BL21 (DE3) Star, purified (described in the Supplemental Material)) [GST-Nanos1 NIM] | binds | – |
